The supplement of paper PMC12042874
± gives the uncertainty stated by the source.

Assay: amyloid nucleation score (Sup35N fusion, yeast selection) (log enrichment); library NNK2; higher = more nucleation; inactive = no reads after selection
Method in brief: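 In psi-negative yeast, Sup35N fusions carrying peptides of 20 random codons were induced with 100 μM copper sulfate for 24 hours. The cells then grew 7 days at 30°C on medium lacking adenine and uracil, and plasmid inserts from input and output were Illumina-sequenced, excluding sequences with under 100 input reads. Nucleation score is the DiMSum log enrichment of output over input reads, centred on the mode score of non-aggregating sequences.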

Substance | amyloid nucleation score
KYYCATSSVFYASSRQMFKS | -0.267 ± 0.49
LAAKFCCQLSFGSFCDCIFR | 7.82 ± 0.084
LAAWLWYTWKG | 0.589 ± 0.66
LADSAYTPY | -0.727 ± 0.54
LAGFGMNFSFRFSVLTWGSV | 3.13 ± 0.09
LAGLYGNFCISRCSVANQMV | 2.08 ± 0.095
LAISHMLSKCVKKIDTL | 1.56 ± 0.2
LAKWGKLCCVLYQYPVSLGE | 0.71 ± 0.28
LAQSYVSYS | -1.45 ± 0.54
LAQVFIIEAPFMTKFLPMLR | 2.81 ± 0.097
LCDLVKASSMFANGSDHFIV | -0.569 ± 0.61
LCDTVTYWVPLC | 4.28 ± 0.094
LCHTRCDRNSSCLL | -0.56 ± 0.79
LCIFYNWRCV | 6.76 ± 0.024
LCISCNVGLGSIKVRNNAFA | 6.12 ± 0.042
LCKYDGCMIAYGVLHSSSAG | 0.651 ± 0.26
LCNGKAPCFKLCIRCLVGLW | 2.82 ± 0.13
LCNMHIMRFNM | -1.07 ± 1.1
LCQIANNSVGLRKDQEGLR | 0.375 ± 0.41
LCRYARCLIVSFVRIFGCCL | -0.47 ± 1.1
LCVCRPGRRSIYLMVWVWWN | -0.513 ± 0.53
LCVLLHVTEKLKANSTLSCV | -0.317 ± 1.1

Substance | amyloid nucleation score
LDALVSWSLECGWYESCWSR | -0.025 ± 0.32
LDFVQCILAVIQGSRDAAGA | 0.438 ± 0.64
LDICCIRGMNRHFRFYNVDV | -0.402 ± 0.61
LDIPNGNYVLMSYR | 0.32 ± 0.44
LDITVCMRFKAPAIIWAYYF | -0.657 ± 0.48
LDLDMRGKHFVFHHTVKHAI | 1.79 ± 0.14
LDPCGYVVSSEGMLVIGVPI | 0.209 ± 0.39
LDPLRPG | 1.14 ± 0.39
LDRGVVSLRLLFARAHNYSK | 2.88 ± 0.15
LDVPARSMCFY | -0.761 ± 0.61
LECCG | -0.838 ± 0.55
LEDGRTSLGMTQRYSIRNIC | -1.11 ± 0.55
LEGGGGFSRAL | -0.651 ± 1.1
LEQKVIIRCCPN | 0.091 ± 0.18
LERFEH | 2.01 ± 0.24
LERGENEVRWTKKLRIKFVF | -0.228 ± 1.1
LESMFNVL | -0.44 ± 0.56
LEVKARFP | -0.471 ± 0.45
LEYCDATLVVRDRQVSAVFL | 0.584 ± 0.35
LFARLLLHYVTS | 9.204 ± 0.08
LFCVDNVVKKGTVP | -0.365 ± 0.76
LFERLELFWYNEGHIMGFGL | 3.42 ± 0.049

Substance | amyloid nucleation score
LFFDTCRIPRSYWSCLEEES | -0.206 ± 0.42
LFFTFSKKFAR | 3.48 ± 0.068
LFHFGNCSRIRGWGICVTSL | -0.506 ± 0.55
LFISFAACGTF | 2.09 ± 0.11
LFLFGSV | 0.28 ± 0.62
LFLLFFRFFQMGDLHYIIAI | -0.661 ± 1.1
LFLQGRNQLDTHWFCPACPM | -0.727 ± 0.55
LFNVMFRSLMVGWMYHENGL | 0.525 ± 0.44
LFSVLL | -0.916 ± 1
LFVYIFVVKVDF | 0.959 ± 0.27
LFYGNHWAPASWIWN | 2.34 ± 0.15
LGCICMR | 4.09 ± 0.071
LGDCVSNHSCLSVEHFDLNY | 4.92 ± 0.11
LGDERDADQIPSGIYG | 1.26 ± 0.27
LGEIVHLTVDASIRSSDR | 5.13 ± 0.088
LGFDFSNVKRTGRVTFFDCM | -0.1 ± 0.35
LGKFEA | inactive
LGLPNNGL | -0.187 ± 0.55
LGLRDELTVVVCWFRTYLIR | 4.634 ± 0.044
LGSDMRLRMTYCPKRCVRWH | 2.77 ± 0.14
LGSWR | -0.829 ± 1.1
LGYGWFNVLTYTTI | -0.209 ± 0.65

Substance | amyloid nucleation score
LGYIWLALRIVNCLDNGVPY | -1 ± 0.44
LHCYFFRLMCQSYDRDYKC | -0.249 ± 1
LHFSICMPTGCDVPPGDKGG | inactive
LHGGVLFKTSTMAGFR | -0.501 ± 0.54
LHIDGNENRFLHRDGKRQEA | 0.245 ± 0.39
LHWFMVEDH | 0.19 ± 0.42
LHYTYVSDCVCRMDTLLFGL | -0.278 ± 0.45
LIAKMAIKFKGDAQF | 4.05 ± 0.09
LIFEEQENAGGMASIMSSMV | 0.463 ± 0.3
LIFRAVWVVMSHHLTG | 0.039 ± 0.42
LIFYIVNHECINGRYALVGY | 0.448 ± 0.62
LIGCPLVDFTLYLCS | inactive
LIIDSGYPSGS | 0.458 ± 0.8
LIPVTGAMGSN | 0.183 ± 0.4
LIQFDTISSLYP | -0.271 ± 0.63
LITRGCCL | -0.33 ± 0.76
LITTSMYLWSVHSFVLHMDD | 0.545 ± 0.4
LIYPANDANNSTR | -0.616 ± 0.64
LKATQLYGFYMTEKCVDSSW | -0.549 ± 1
LKDETN | inactive
LKNVLTCESVINQLR | -0.464 ± 0.39
LKTGSF | inactive
